# Experimental data as given in the NTF2 design screens of Basanta et al. (2020).
# Experiment: protease stability score; higher = more stable; yeast display proteolysis, trypsin and chymotrypsin;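 also: log10 excess protease needed over predicted unfolded state with 0 meaning unfolded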
row,Sequence,protease stability score
1,DSEKNEALQRAVEIWNSNDPDKLKKQFDPNARHTYGDTVVHGRENLARRLEQLKRESRLTFQVTHLDVHNGKVTADVTIVEEHNGKPDTKRMDVQANVQNGRFKSVYVHESS,-0.003
2,DSEKYLKDLNSNLLRILQTNDEKKLRDLVDKDVKITVGDKSYHGREEFAKVLRTLLNEHDKWRVHYQSIHQHNGKLRAVIDLKAENNGQTLSRNLDITAEERNGEVHVKHAQIG,1.08
3,DSENVKVVREFIKAVERNDHQKLRDLVDPNATAQIGDKEYTGMDDIVTRIIETIRQLRFKIKLHHVDNHNGVVNVKAVFTFEHNGKPDKREVDIRVEITNGKVTNFQYQEHK,2.08
4,DSERAKEVVKEFEHNDRQKFRDLFDEDASVTIGNRTYHGRHEVERALKRHIDRVDHVKINSVQIRGERIHMEAVFNINGQEFTLQMTLQLSNGKVKTWVLRVTDPDLKRKLHKNME,1.15
5,DSERAKQWTHFLRLMETGNEEDLSKMADPNARFQVGDETYKGKDDVTKWARTVKTHMRVTYKRLNNDDEEGHARIEADYQYDHNGKPEEDKNSLVLSFHNGQIKEVVIHHVS,0.164
6,DSERASEAARTFVDAMRTNDEKQFNELFDPNARVRIGDEKVHGMDRITDQLHNLNKKADHNEVLDYKVNGNTAVVHFQVDHNGQTRRYRIVITMHNGRVHEMQVNTK,0.458
7,DSERRQREAENFFKNLQTGNKHEFEKLFPPDVRAQVGEKEIHGREEAQKWWKNIHDRADHMQIDHFDVDGNKITFDMRMNVDGHEIRMRLTIRLENGQYRSLTAEVRDEDAERRLKS,0.672
8,DSEVLDVLTSIVKNIHNGNPDEVMKQMDPNARVQVGDDRFHGDRKQQEDVQTLLDTMEVNIHITSVDFDGDKVTVRFKVEYNVNGRPFRIEAEMQAVAKNGRIQDLKVRIDKQFLSELKS,0.858
9,DSHAENLLQQVLKALETGDQKRVMELFDPNAKVRYGDKTLHGREEIRKYVKKLKDEMQIRIEVRSVTVQGNKITADVVVRADVDGKPVEMRVRIHVEFENGKIHSLSVDMDPEQVKELEK,1.56
10,DSHAHNVADEVMRALQENDEDSLRQLLDPNVEFHIGDTTYHGREQVRHWITRLKEQMRVKFDLKDLKVQGDTVHIKLRLEQEHNGQPRQHNVVINVKIDNGRVKKISFQHTK,1.64
11,DSHEKAEKWARKLNQVWEHNDPDRAMEMVDPNVRVDIGDRRYHGREDWRKMVEHLNKRVDHMEFKFDQVDAHNGKIRITVTFTYTIDGQERTERLVFHVDNVNGRLVAQKAHDG,0.343
12,DSHLEHKAHEWVKAVNENDPDRLVQLMDKDVKIDVGDKKFSGRENYATEVKKEQDEARVEWKDVKLSADNGKLELQADVVRRHNGQPQRWKVENIYTDKNGVAKYLTNKSKP,-0.423
13,DSHLQEEVERFWKQLEHGNRQNLRELADEEVNFVYGDKTIHGREKAATHMSKRVRKIQIEWKTYSAEVHNGKLDATAEWRADHNGKPKDVKMTFYVKVHNGRIKEVNIQEEK,0.178
14,DSHQQAREMVRELQRILETNDTDKWRHMFDPNARAQYGDKEYHGRDQVTHYLQEQTQRVDSVRVNIDEVDVSGDKLRVVFTLVRVHNGEEKSDTYVFVLRFHGDHARIESFRRK,0.687
15,DSHTIAKELMKTWQDAARNNDEDKLKELIDKDASASVGDKTFHGRESFARHVQEQARRADHLEVRLESMSINGDHIHLQFVVRYNVNGKESSDRYVVIFHKVNGKFRVRQIKQR,0.721
16,DSKELARRFHTELLENLRHNDSERLRRLLDEDARVHVGDKEVHGREQFADEQTKIMEHFDRVELRIREVTIEEGRVKVLIHFDADNNGEKHTDNSEVTFDNQGDKLTNKTQHES,-0.13
17,DSKEVRKAEELAKAVRTGDPDTIVKLMDPNARLKVGDREYRGQKDVQKFLKRVLDEIRVKLDVQDIKAHNGKVKVRATVVQRKNGTPHHRTMRMWVQMNNGHVEELSVSNDS,0.401
18,DSKQRAKEFVKEFQRVLQKGDPDQAEKMADKDVRINVGDKTYHGREEMWKMAQEWQRKYDEMSITVSRIQTRPGRIVANAKLKLDNNGTTDDTHLVIVVREHNGHYRAVHIRLG,0.992
19,DSKVRRVAERFMHAIQEGNEDDVRKLADKNVQIHVGEKELRGRDQLAKDVSDRTRQIRLHIKHLSIHVQGDKVIVRFDVVETHNGKPHRYRAKAEMRVRNGRVTRYTVKHDG,0.633
20,DSNALSRAMEYLRVVEQGDPKRAKQLFDPNARFIYGDRTVHGKDRIADMLRHERDDMRLQIDDLKTTVQGDKVVVRYKAVRERNGHPETFRAEFRVEFNNGKIEQQNYQVHK,0.25
21,DSQERADDWMRDFNRAVQHGDPTQLTDLMDKDANARIGDTSVHGRHHLVTRWQQFRTDVDRVDIHIVSIEVQGDKIHIDMTFQADVNGRRKEDHIVIIAVDRNGKVKVQQIQDK,-0.337
22,DSQKERDLVEHFLRNFRTGDPDKLKTMADPNAHMRVGDKNVHGREDLSRWVQEVRDRADHIDIDTFSVSNGRATATIVMRVDGKEVRFEVVITMENGKIKSMEQQDR,0.726
23,DSRAANLFSHAWKQVETGNNHNFRKLLDPNARRKVGDQTIDGREEMTEDNKRKRKEMHRTIETMSFEDHGDKAVFYMQYVVHHNGEPREIRNRVIIKVRGDRIKEVEVRKDG,0.006
24,DSRAQSLFHKWMDALRTGDRRKLSELADPNVSITYGDKTIHGREENMKEAHRLVNQMRVDFDIKSIENEPNRVIIRMRVEYDVNGRPFDDEVVVELRAKGDHIKEVRVRIDPRQVKELSG,0.907
25,DSRAVHLAKNFMSALKTGDHDRARDNLDKDARISIGDKVWHGMDEAVHDIKREKEEMRIEFRKVDAKDSNGKVRMDADVVFNHDGRPDKFRLDADIEVHNGRIHVLDVENSK,0.264

row,Sequence,protease stability score
1,DSRDNRAATRLRQAHESGDPDQIRDNVDPNATIQVGDKSIHGMESWAREEHKKHRELKVEIKDFRQSASNGHVKATIDRVDNHNGRPQRTTVDIHIVFHNGKVKSIDVKTTK,-0.481
2,DSREAKRAETFFRLVQRGDSRKLQEYMDPNARINIGEKRIHGRENYAKEVKDRREHIRVDIKSLEASDTNGRIHVEVHFEHSHNGRPDQQTMELRITMHNGRAQEITQHETK,-0.223
3,DSREEAKRFFTKMVEIFKTGDEDEAHEMADKNARVHVGDKTVRGREQYTRKMSKEVKQVDHAEYRIQDVEVQGEHIRITFVRRIDTNGRTNEQHLVMEAEKHNGRIYIKQIHES,-0.159
4,DSRELDEFIHKFAQVIRKGNPRDAMKNVDKDARAVVGNKHINGRDQFHKWIEDLNKTIDHFEIVHVEVEGDRALMDVQVNINGKTRRIRLTAHVHNGRFKDVRVDPENERKLNQ,0.011
5,DSREQEDFRRKVETNNPDQEKKMFDENARLQVGDKTYHGREKVFDFLKTLMDQVDHVHVRDMHVKGDEYSFDIILDINGRRIHITFLARVHNGHIKSQSLRATDESVKDEIEELQG,0.404
6,DSRSNAQRVLDAINQLVHGNPQEFNKNADPNVRATYGDKEVHGREEVKKHVDSLMKKVDHVQVKNYQITGDKARVQVVLDINGRTRHVQINAHAKNGRIKHVEIQQQ,0.895
7,DSTNVEILKEYVENQRRGNEDQLRRLMDPNVHVQVGDKQLHGDRQITDEFRRQQEHLRFSIKTYDYRDQGDKVRAHIVYEQMHNGRPETVRHNMVAEIHNGNIKYLQIESDQ,-0.301
8,DSTQVRILEEMNRAIERGDPERVYQLADPNARFQIGDTQIHGMESFMKHVEETVRHMRISIRSLHADDEGDKMKVTFTFVVNRDGQPRRRVVTATAHANGDQVKYLEWRDDE,0.477
9,DTDAVKNFKEDLHAVRSGDPDRLLKMFDPNAKLQIGDKEVTGMDQYAKEVHNTRQEIRMSYELRDYKVDGDKIEADIRVQKDVNGRPYRDKVKVDIKVNNGRIKKARYQVDEDKEKQLQS,-0.126
10,DTDAVRRALKFIDAMQDGDPDKARELMDPNARVNIGDKEYHGMTSFVKDLKRLRDEIRVQYNIRDYNAQGEKIHVTVDVVFEHNGRPVDERFNVTIDIQGDKIKQVTAHRTK,1.61
11,DTDDNRKAAENILTAIQSNDPDERQKNADENVKVNVGDNRISGRENMHEFMKRVWEDVDKITIRSYTFKGDKMTADIHLNFNGQTAKLNVDVNIHNGKAQEVSMDPKADRVVRT,0.47
12,DTDDTEALRRFFDALHNGDPDKVDKNADKDVRFKVGDKEIHGREQLRRTVEQQKKEIRYEVDVKQISDHNGQVSVHAHFQENKNGKPKNVEVTAVAEAENGTLKQLEFNSDQ,-0.367
13,DTDKTARQLVRDLEKALQTGDPDKLAKLFDKDARINVGEKDYQGRERMQRNWRRDNTRIDHVSVDLKDMKIQGNKISVDMTIKFKVDGHHNSRVVVLLFDNDNGTVRAVENQQK,0.16
14,DTEARKLIEELLRAVRDGDPDQVKQNADPNARVQYGDQTFHGMDRYAEWVEEMHKQARVSIEFDSFSFTGDKVQMHAKHVVEVNGKPQRDTVVIRAVVRGDKIRNIHFRMDEQRVRDQQS,0.783
15,DTEDDHEFARKYVEVLESGDPKQWREMFDEDAKMRIGEKTFRGRDQIATWYERYRRQADHVEVKHVETRGEQFQFDFQVHVNGKHARYTLNIRVHNGKLVEVKFDPDQKKTMDK,1.75
16,DTEDLNRLANTMASAIHHNDPDKIVKMFDPNARARVGDKSYHGREDLRKMVNEWHRQADDIHIQQVQVHNGRAYINFVRNVNGVHADLTAIITIENGRAEKMTLTYRNPDDEKKVQG,0.279
17,DTEDNHKLREVIRTNNPQEIREMMDPNVKVRYGNKEIEGRDQAVKHEQDLQHRADRVKIEDMRVHGDKLVVVWSINIDGSEFRFSFEARIHNGKVKFAQIQFTDPDLERKFDDMLQ,0.324
18,DTEELQRLLTLVETNDFETLAKQADENARADVGDHKITGREDITRWAKQLSDRIDHVEVRSLDIQGDKAVAVLQFHVNGRTMVFRVHISAHNGKVKHFQVKVRDENARKQLKRVVD,0.147
19,DTEERAEDFMHIMQNAATHGDPNIQRHLADKHVRVEVGDKTVSGREEHKTEFDKRVKQYDSISVNMRKMEIDGDKARFNVEERYNTNGRNQHHDVKQQAIVQGDKVHLDRVDNK,-0.603
20,DTEEREKVMEIMRTGDPDKLHKLMDKNVKVVVGDKRYHGREMVEELVQKLKSQIDHIEVKDYTIQGDNLILNAVINVDGRSVELVIFVRVHNGRIKHMNFNVTDEEEQKKLDENLS,1.34
21,DTEKLDRFAHEFVKVLREGDEDRMRKLADEDASMNIGDKEYRGREEVAKALREYRERYDHLQVDSIDVQGEHISVKAQVRIDGRRRRARFEVRMHNGRIKEVNFDPDLLKEQHT,0.206
22,DTEKTTELKKMFDHEQEGNENHLMRMFDPNATVQVGDKRIHGREDLQRWLDRFRKNQRVNVRSITVDVQGERFRVEVEADAKHNGRPNQMHRSMEVEFHNGRIKRADFQTDG,0.124
23,DTELKDQIKRFLSERNSGNPQKMVEQMDPNANMSVGDKSVRGREQVSEQAEREKRELHYRVRSVDISVNGDKVKVKINVEREHNGRPFTMTLDLTIRAHNGRLTRVEVSLSEDDKREIKR,0.521
24,DTELTHELSHRIKDNNWEDLSKNADENVEFRVGNKEYHGKEEFQHLQENLKRQIDDVKIHSLTAQGDHLEADVVYNVNGRDLRFTFHMTVRNGKIKEMNASFRDESQVNTMLTVLN,-0.238
25,DTENEKLQRRFMKALKTNDPHRAREMADENAKVQVGDKRIHGMQTVVEDLEREWREQRNDVKVRSVSNEGNKVNMDATMKVEHNGKPKHFNVVYRATVHNGRIHELRVERDG,0.088
